Experimental data as given in patent US20150191541A1 (NEOTOPE BIOSCIENCES, published 2015).
Positions count from the first letter of the chain named. Blank lines part the entries; values can stand above or below the binder they belong to. Positions of bridges follow the written chain, without caps; N, C: chain ends. No end group written: not given here.

Key:
[1] = target: T1, peptide of amino acid residues 1-10 of IAPP (human, disulfide 2-7); assay: epitope mapping
T1 construct: also called IAPP 1-10
T1 peptide: KCNTATCATQ

[2] = target: T2, human islet-amyloid polypeptide (IAPP) (human); assay: ELISA screen of hybridomas on IAPP
T2 construct: also called hIAPP; amylin
T2 peptide: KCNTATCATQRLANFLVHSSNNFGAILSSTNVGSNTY

rat IAPP = target: T3, rat IAPP (rat, UniProt P12969 38-74); assay: Biacore SPR, antibody captured on anti-human CM5 chip, rat IAPP as analyte
T3 construct: also called rat islet-amyloid polypeptide
T3 peptide (looked up): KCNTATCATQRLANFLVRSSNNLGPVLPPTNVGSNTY
Procedure: The affinity of various combinations of 8A9 humanized heavy chains and humanized light chain proteins for hIAPP was analyzed on a Biacore instrument. Biacore analysis was performed by preparing an anti-human CM5 chip following the protocol provided in the kit. The 8A9 antibody was captured such that the maximum binding of rat IAPP would not exceed 20-30 RU. […] Data was blank subtracted to both an irrelevant sensor not containing 8A9 and 0 IAPP concentration to account for the dissociation of 8A9 from the anti-human capture. Data was then analyzed using a global 1:1 fit.

binding result [1]: binds
binding result [2]: binds
B1: murine 8A9 antibody (antibody, V domains shown)
VH: QVQLKESGPGLVAPSQSLSITCTVSGFSLTNYAVHWVRQPPGKGLEWLGVIWSGGNTNYNSALMSRLRISKDNSQSQVFLKMNSLQTDDTGMYYCARDRGYYGGIYGFANWGQGTLVTVSS
VL: DIQMTQSPSSLSASLGKRVSLTCRASQEISGYLSWLQQKPDGTIKRLIYAASTSDSGVPKRFSGSRSGSDYSLTISSVESEDFADYYCLQYADYPYTFGGGTKLEIK
notes: Mouse hybridoma antibody; also called m8A9; mouse 8A9 antibody

fold difference of affinity against murine 8A9 (rat IAPP): < 2 fold
B2: humanized 8A9 antibody version H7L3 (antibody, V domains shown)
VH: B1 VH with K5Q, E6Q, A13K, I20L, R68T, S76N, M82L, Q86T, D88A, M92V
VL: DIQMTQSPSSLSASVGDRVTITCRASQEISGYLSWLQQKPGKAIKRLIYAASTSDSGVPSRFSGSRSGSDYTLTISSLQPEDFADYYCLQYADYPYTFGGGTKVEIK
notes: also called H8A9-H7L3
